This experiment has as its target SIINFEKL-MHC-I (SIINFEKL peptide bound to MHC-I H-2Kb) (chicken; mouse). The experiment in a line: cell-based or functional assay.

On to “T cell receptor of OT-1 CD8+ T cells (TCR)”, for which the neuronal death (TH+ neurons killed by CTLs) is 55%.

The values are drawn from patent US20170184612A1, “USE OF LEUKOCYTES AND NOVEL BIOMARKERS IN THE DIAGNOSIS, CONFIRMATION, AND TREATMENT OF A NEUROLOGICAL DISORDER” (The Trustees of Columbia University in the City of New York, priority 2014, published 2017).
